Our source for the Ki values is US20250312499A1, “KISSPEPTIN RECEPTOR (KISS1R) TARGETED THERAPEUTICS AND USES THEREOF” (priority 2024, published 2025).

Numbered stars: 1 amine (or outer) side, 2 acyl side, 3 side chain; on linkers, the order of the positions; unused ones are H or OH. Square brackets hold non-standard residues; d marks the D form. Ends that are not written are not given here. * marks the point of attachment. X2 = 4‑amino‑1‑((3-fluoro-4-methylbenzyl)glycyl)piperidine‑4‑carboxylic acid, Cc1ccc(CN(CC(=O)N2CCC(N[*:1])(C(=O)[*:2])CC2)[*:3])cc1F; DOTA = O=C(O)CN1CCN(CC(=O)O)CCN(CC(=O)*)CCN(CC(=O)O)CC1; Api(1-amidino) = N=C(N)N1CCC(N)(C(=O)O)CC1; d(γGlu) = O=C(O)[C@@H](CCC(=O)[*:2])N[*:1]; Phe(3-F) = N[C@@H](Cc1cccc(F)c1)C(=O)O; εLys = N[C@@H](CCCCN[*:1])C(=O)[*:2]; Adipoyl = O=C(CCCCC(=O)[*:2])[*:1]; 4Pal = N[C@@H](Cc1ccncc1)C(=O)O; d4Pal = N[C@H](Cc1ccncc1)C(=O)O; 4Amb = NCc1ccc(C(=O)O)cc1; Octanoyl = CCCCCCCC(=O)*; APM = not defined here; Ahx = NCCCCCC(=O)O; azaGly = NNC(=O)O

To fix the notation:
B1: Compound 213 (peptide)
peptide: {DOTA}-GY[4Amb]NTF[azaGly]L[X2]W-NH2
SMILES: Cc1ccc(CNCC(=O)N2CCC(NC(=O)[C@H](CC(C)C)NC(=O)NNC(=O)[C@H](Cc3ccccc3)NC(=O)[C@@H](NC(=O)[C@H](CC(N)=O)NC(=O)c3ccc(CNC(=O)[C@H](Cc4ccc(O)cc4)NC(=O)CNC(=O)CN4CCN(CC(=O)O)CCN(CC(=O)O)CCN(CC(=O)O)CC4)cc3)[C@@H](C)O)(C(=O)N[C@@H](Cc3c[nH]c4ccccc34)C(N)=O)CC2)cc1F
B2: Compound 149 (peptide)
peptide: {DOTA-4Amb}-GY[Ahx][dY][dW]NTF[azaGly]L[X2]W-NH2
SMILES: Cc1ccc(CNCC(=O)N2CCC(NC(=O)[C@H](CC(C)C)NC(=O)NNC(=O)[C@H](Cc3ccccc3)NC(=O)[C@@H](NC(=O)[C@H](CC(N)=O)NC(=O)[C@@H](Cc3c[nH]c4ccccc34)NC(=O)[C@@H](Cc3ccc(O)cc3)NC(=O)CCCCCNC(=O)[C@H](Cc3ccc(O)cc3)NC(=O)CNC(=O)c3ccc(CNC(=O)CN4CCN(CC(=O)O)CCN(CC(=O)O)CCN(CC(=O)O)CC4)cc3)[C@@H](C)O)(C(=O)N[C@@H](Cc3c[nH]c4ccccc34)C(N)=O)CC2)cc1F
B3: Compound 205 (peptide)
peptide: {DOTA-4Amb}-NTF[azaGly]L[X2]Y-NH2
SMILES: Cc1ccc(CNCC(=O)N2CCC(NC(=O)[C@H](CC(C)C)NC(=O)NNC(=O)[C@H](Cc3ccccc3)NC(=O)[C@@H](NC(=O)[C@H](CC(N)=O)NC(=O)c3ccc(CNC(=O)CN4CCN(CC(=O)O)CCN(CC(=O)O)CCN(CC(=O)O)CC4)cc3)[C@@H](C)O)(C(=O)N[C@@H](Cc3ccc(O)cc3)C(N)=O)CC2)cc1F
B4: Compound 151 (peptide)
peptide: {DOTA}-GY[dW]NTF[azaGly]L[X2]W-NH2
SMILES: Cc1ccc(CNCC(=O)N2CCC(NC(=O)[C@H](CC(C)C)NC(=O)NNC(=O)[C@H](Cc3ccccc3)NC(=O)[C@@H](NC(=O)[C@H](CC(N)=O)NC(=O)[C@@H](Cc3c[nH]c4ccccc34)NC(=O)[C@H](Cc3ccc(O)cc3)NC(=O)CNC(=O)CN3CCN(CC(=O)O)CCN(CC(=O)O)CCN(CC(=O)O)CC3)[C@@H](C)O)(C(=O)N[C@@H](Cc3c[nH]c4ccccc34)C(N)=O)CC2)cc1F
B5: Compound 181 (peptide)
peptide: Octanoyl-[dY]K(DOTA)NTF[azaGly]L[X2]W-NH2
SMILES: CCCCCCCC(=O)N[C@H](Cc1ccc(O)cc1)C(=O)N[C@@H](CCCCNC(=O)CN1CCN(CC(=O)O)CCN(CC(=O)O)CCN(CC(=O)O)CC1)C(=O)N[C@@H](CC(N)=O)C(=O)N[C@H](C(=O)N[C@@H](Cc1ccccc1)C(=O)NNC(=O)N[C@@H](CC(C)C)C(=O)NC1(C(=O)N[C@@H](Cc2c[nH]c3ccccc23)C(N)=O)CCN(C(=O)CNCc2ccc(C)c(F)c2)CC1)[C@@H](C)O
B6: Compound 206 (peptide)
peptide: {DOTA-4Amb}-[dE]NTF[azaGly]L[X2]Y-NH2
SMILES: Cc1ccc(CNCC(=O)N2CCC(NC(=O)[C@H](CC(C)C)NC(=O)NNC(=O)[C@H](Cc3ccccc3)NC(=O)[C@@H](NC(=O)[C@H](CC(N)=O)NC(=O)[C@@H](CCC(=O)O)NC(=O)c3ccc(CNC(=O)CN4CCN(CC(=O)O)CCN(CC(=O)O)CCN(CC(=O)O)CC4)cc3)[C@@H](C)O)(C(=O)N[C@@H](Cc3ccc(O)cc3)C(N)=O)CC2)cc1F
B7: Compound 193 (peptide)
peptide: {DOTA}-G[dY][d4Pal]NTF[azaGly]L[X2]Y-NH2
SMILES: Cc1ccc(CNCC(=O)N2CCC(NC(=O)[C@H](CC(C)C)NC(=O)NNC(=O)[C@H](Cc3ccccc3)NC(=O)[C@@H](NC(=O)[C@H](CC(N)=O)NC(=O)[C@@H](Cc3ccncc3)NC(=O)[C@@H](Cc3ccc(O)cc3)NC(=O)CNC(=O)CN3CCN(CC(=O)O)CCN(CC(=O)O)CCN(CC(=O)O)CC3)[C@@H](C)O)(C(=O)N[C@@H](Cc3ccc(O)cc3)C(N)=O)CC2)cc1F
B8: Compound 169 (peptide)
peptide: {DOTA-Ahx}-NT[Phe(3-F)][azaGly]L[X2][4Pal]-NH2
SMILES: Cc1ccc(CNCC(=O)N2CCC(NC(=O)[C@H](CC(C)C)NC(=O)NNC(=O)[C@H](Cc3cccc(F)c3)NC(=O)[C@@H](NC(=O)[C@H](CC(N)=O)NC(=O)CCCCCNC(=O)CN3CCN(CC(=O)O)CCN(CC(=O)O)CCN(CC(=O)O)CC3)[C@@H](C)O)(C(=O)N[C@@H](Cc3ccncc3)C(N)=O)CC2)cc1F
B9: Compound 6 (peptide)
peptide: {DOTA-Ahx}-[dY][dW]NTF[azaGly]L[Api(1-amidino)]W-NH2
SMILES: CC(C)C[C@H](NC(=O)NNC(=O)[C@H](Cc1ccccc1)NC(=O)[C@@H](NC(=O)[C@H](CC(N)=O)NC(=O)[C@@H](Cc1c[nH]c2ccccc12)NC(=O)[C@@H](Cc1ccc(O)cc1)NC(=O)CCCCCNC(=O)CN1CCN(CC(=O)O)CCN(CC(=O)O)CCN(CC(=O)O)CC1)[C@@H](C)O)C(=O)NC1(C(=O)N[C@@H](Cc2c[nH]c3ccccc23)C(N)=O)CCN(C(=N)N)CC1
B10: Compound 156 (peptide)
peptide: {DOTA}-[d(γGlu)]F[azaGly]L[X2]W-NH2
SMILES: Cc1ccc(CNCC(=O)N2CCC(NC(=O)[C@H](CC(C)C)NC(=O)NNC(=O)[C@H](Cc3ccccc3)NC(=O)CC[C@@H](NC(=O)CN3CCN(CC(=O)O)CCN(CC(=O)O)CCN(CC(=O)O)CC3)C(=O)O)(C(=O)N[C@@H](Cc3c[nH]c4ccccc34)C(N)=O)CC2)cc1F

The target of this experiment is human kisspeptin receptor (KISS1R) (human), Q969F8. Put plainly: radioligand competition, hKISS1R membranes; legend: A is <10 nM.
Sequence of human kisspeptin receptor (KISS1R) (human), Q969F8 (Q969F8 whole entry): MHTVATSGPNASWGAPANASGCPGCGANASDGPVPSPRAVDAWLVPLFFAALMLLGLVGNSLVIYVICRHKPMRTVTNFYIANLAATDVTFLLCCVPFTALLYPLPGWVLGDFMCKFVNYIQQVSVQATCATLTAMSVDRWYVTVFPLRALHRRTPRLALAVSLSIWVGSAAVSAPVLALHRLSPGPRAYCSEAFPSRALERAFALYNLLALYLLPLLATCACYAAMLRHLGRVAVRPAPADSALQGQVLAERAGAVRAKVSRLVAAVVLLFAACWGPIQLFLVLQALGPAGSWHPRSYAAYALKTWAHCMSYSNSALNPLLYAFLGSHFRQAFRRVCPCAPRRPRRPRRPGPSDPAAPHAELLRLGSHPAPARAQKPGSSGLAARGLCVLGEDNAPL
Regarding {DOTA-APM}-NTF[azaGly]L[X2]W-NH2 (reading uncertain) [Compound 158], the inhibition constant (Ki) was under 10 nM.

Regarding B1, the Ki is under 10 nM.

On to B2, for which the Ki was under 10 nM.

For B3, the Ki was under 10 nM.

{DOTA-4Amb-Met-Trp-εLys-Adipoyl}-NTF[azaGly]L[X2]W-NH2 [Compound 168] gave a Ki of under 10 nM.

Turning to {DOTA-(1r,4r)‑4‑(aminomethyl)cyclohexane‑1‑carbonyl}-[dE]NT[Phe(3-F)][azaGly]L[X2]W-NH2 [Compound 161], the Ki was under 10 nM.

The molecule {DOTA-(1r,4r)‑4‑(aminomethyl)cyclohexane‑1‑carbonyl}-ENT[Phe(3-F)][azaGly]L[X2]W-NH2 [Compound 160] returned a Ki of under 10 nM.

{Me‑PEG25‑C(:O)}-[dY]K(DOTA)NTF[azaGly]L[Api(1-amidino)]W-NH2 [Compound 182] had a Ki of under 10 nM.

{DOTA-2‑(4-aminopiperidin-1-yl)acetyl}-KNT[Phe(3-F)][azaGly]L[X2]W-NH2 [Compound 164] showed a Ki of under 10 nM.

{2,2',2''‑(10-(2-((((1s,4s)-4-carboxycyclohexyl)methyl)amino)-2-oxoethyl)-1,4,7,10-tetraazacyclododecane-1,4,7-triyl)triacetic acid}-ENT[Phe(3-F)][azaGly]L[X2][4Pal]-NH2 [Compound 170]: the Ki was under 10 nM.

B4 registered a Ki of under 10 nM.

Molecule {DOTA-APM}-ENT[Phe(3-F)][azaGly]L[X2]W-NH2 (reading uncertain) [Compound 159] returned a Ki of under 10 nM.

On to {3‑(2-(2-methoxyethoxy)ethoxy)propanoic acid}-[dY]K(DOTA)NTF[azaGly]L[Api(1-amidino)]W-NH2 [Compound 197], for which the Ki is under 10 nM.

B5 showed an inhibition constant (Ki) of under 10 nM.

B6 had a Ki of under 10 nM.

{3‑(2-(2-(3-(4-iodophenyl)propanamido)ethoxy)ethoxy)propanoic acid}-[dY]K(DOTA)NTF[azaGly]L[Api(1-amidino)]W-NH2 [Compound 196]: the Ki was under 10 nM.

On to F[azaGly]L[X2]W-NH2 (not fully specified (N-terminus)) [Compound 203], for which the Ki was under 10 nM.

In turn, {DOTA-trans‑4‑(aminomethyl)cyclohexane‑1‑carboxylic acid}-F[azaGly]L[X2]W-NH2 [Compound 192] showed a Ki of under 10 nM.

Turning to {DOTA-APM}-ETF[azaGly]L[X2]W-NH2 (reading uncertain) [Compound 234], the Ki was under 10 nM.

In turn, B7 came in with a Ki of under 10 nM.

For the molecule B8, the Ki was under 10 nM.

In turn, B9 registered a Ki of under 10 nM.

Regarding {DOTA-APM}-ENT[beta‑(2-thienyl)alanine][azaGly]L[X2]W-NH2 (reading uncertain) [Compound 218], the inhibition constant Ki was under 10 nM.

Regarding NTF[azaGly]L[X2]W-NH2 (not fully specified (N-terminus)) [Compound 167], the Ki is under 10 nM.

{DOTA-APM}-TF[azaGly]L[X2]W-NH2 (reading uncertain) [Compound 233] came in with a Ki of under 10 nM.

Regarding B10, the Ki is under 10 nM.

Molecule {3‑(2-(2-(3-(p-tolyl)propanamido)ethoxy)ethoxy)propanoic acid}-[dY]K(DOTA)NTF[azaGly]L[Api(1-amidino)]W-NH2 [Compound 195] returned a Ki of under 10 nM.

As to {DOTA-4Amb}-[D‑3‑aminopentanedioic acid]NT[Phe(3-F)][azaGly]L[X2][4Pal]-NH2 [Compound 232], the Ki was under 10 nM.
